Where two headings read alike, the source gives them in different places.
Tests used:
[1] = biological target: T1, NFS1-ISD11 complex (SD), purified, His tag removed (human, UniProt Q9Y697 56-457; Q9HD34 1-91); test: BLI
[2] = biological target: T1, NFS1-ISD11 complex (SD), purified, His …; test: BLI; remark: listed apart in the source

T1 sequence (Q9Y697 56-457, chain 1 of 2): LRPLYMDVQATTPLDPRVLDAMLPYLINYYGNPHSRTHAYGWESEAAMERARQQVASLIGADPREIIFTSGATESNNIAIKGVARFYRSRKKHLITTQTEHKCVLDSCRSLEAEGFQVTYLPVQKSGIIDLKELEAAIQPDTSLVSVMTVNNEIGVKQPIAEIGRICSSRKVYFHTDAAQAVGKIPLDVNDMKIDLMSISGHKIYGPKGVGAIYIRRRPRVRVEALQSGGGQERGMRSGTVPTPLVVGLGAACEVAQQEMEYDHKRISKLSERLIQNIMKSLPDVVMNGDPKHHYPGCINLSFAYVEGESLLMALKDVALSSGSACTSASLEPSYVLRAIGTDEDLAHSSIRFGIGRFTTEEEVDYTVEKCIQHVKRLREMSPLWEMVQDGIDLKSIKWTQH
T1 sequence (Q9HD34 whole entry, chain 2 of 2): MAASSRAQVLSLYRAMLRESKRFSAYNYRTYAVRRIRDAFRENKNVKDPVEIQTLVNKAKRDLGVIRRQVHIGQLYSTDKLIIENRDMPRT

B1: biotinylated human ISCU (Δ1-34), wild type (natural protein, UniProt Q9H1K1 35-167, looked up)
chain: YHKKVVDHYENPRNVGSLDKTSKNVGTGLVGAPACGDVMKLQIQVDEKGKIVDARFKTFGCGSAIASSSLATEWVKGKTVEEALTIKNTDIAKELCLPPVKLHCSMLAEDAIKAALADYKLKQEPKKGEAEKK
modifications: biotin (site not stated)
**Q.** How did the Kd [1] turn out when B1 was run?
**A.** 160 ± 26 nM

**Q.** And the Kd [2]?
**A.** 87.8 ± 7 nM
